Experimental data as given in the supplement of paper PMC9170038.

Tested on: MS2 coat protein
Experiment: apparent KD of MS2 coat protein; designed switch direction (-1 OFF switch, 1 ON switch): -1; higher = weaker reporter binding
In short: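 Designed RNA switches with common flanks were made on Illumina chips by stalled E. coli RNA polymerase. Titration with SNAP-549-labelled MS2 coat protein doubled from 0.7 or 1.5 nM up to 3 µM. Apparent KD is each design's median over clusters after curve-fitting normalised fluorescence.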

[1] = input ligand: microRNA oligo, concentration not stated
[2] = Eterna round: R95, input ligand: microRNA oligo, concentration not stated
[3] = Eterna round: R95, input ligand: FMN 200 uM
[4] = Eterna round: R95, input ligand: none

Sequence	apparent KD of MS2 coat protein (input ligand: FMN 200 uM) [nM]	apparent KD of MS2 coat protein (input ligand: none) [nM]	other results
GGAAUGUAAGGAUAUCCGAAAAGCGAGCGAAAGCGAGCAAAGGAGAAGGUACAUGAGGAUCACCCAUGUAAGGG [AK-MS2ROC-r4-exclusion4-12] (Eterna round: R97, puzzle: Exclusion 4)	58.9	768	–
GGACGGAUAGGAUAUACAUGAGGAUCACCCAUGUGAACCCAGCAGAGGCUUCUUUGCAGUAGAAGGGUCCUUUA [Eternabot (Original) Solution 43] (Eterna round: R97, puzzle: Exclusion 3)	53.5	47.5	–
GGAGAGAGAGGAUAUGGAGGAAAGAACAUGAGGAUCACCCAUGUAGAGCCUCAAGAUCGACCAGAAGGCUCAGUCC [AK-MS2ROC-r4-exclusion5-10] (Eterna round: R97, puzzle: Exclusion 5)	150	27.5	–
GGAGGACGAGCAGGAUAUUUUUACAUGAGGAUCACCCAUGUGUACUCAGGGUAAUCCUCCGCCGAAAAGAAGGGUUCGGAAGAA [JL ViennaUCT Socedi mod 4] (Eterna round: R96, puzzle: Exclusion NG 2)	124	63.2	apparent KD of MS2 coat protein [1]: 41.6 nM
GGAUAAAGUCGAGGAUAUACGCACCACUAACGAGUAGAAGGCGAACAUGAGGAUCACCCAUGUGAGUUCUCAAUAAGAAACACG [Prohibition 69 - Jieux - Exclusion NG 1] (Eterna round: R96, puzzle: Exclusion NG 1)	54.1	37.1	apparent KD of MS2 coat protein [1]: 26.1 nM
GGAUCACAUGUCAGGAUAUGCUGGUCCUUGGAUCAGCAGAAGGGACAUGAGGAUCACCCAUGUCAUGAAGAUCC [Eli bmx4 4.80] (Eterna round: R97, puzzle: Brourd's mod of Exclusion 4)	1020	139	–
GGAUCGAAAGUGAGGAUAUACCACUGGAUACAGUGGUAGAAGGCACAUGAGGAUCACCCAUGUCCUUACGAUCC [Fiskers BMX 4 - 48] (puzzle: Brourd's mod of Exclusion 4)	–	–	apparent KD of MS2 coat protein [2]: 20.5 nM
GGAUCGAAUGUGAGGAUAUGCUGGUCCUUGGAUCAGCAGAAGGCACAUGAGGAUCACCCAUGUGACCAAGAUCC [Eli bmx4 4.73] (Eterna round: R97, puzzle: Brourd's mod of Exclusion 4)	450	44.1	–
GGAUCGAGUGUGAGGAUAUGCUGGUCCUUGGAUCAGCAGAAGGCACAUGAGGAUCACCCAUGUGAAGACGGUCC [Copy of R95 JL bmx4 3.16] (Eterna round: R97, puzzle: Brourd's mod of Exclusion 4)	288	38.6	–
GGAUCGAGUGUGAGGAUAUGCUGGUCCUUGGAUCAGCAGAAGGCACAUGAGGAUCACCCAUGUGAAGACGGUCC [JL bmx4 3.16] (Eterna round: R96, puzzle: Brourd's mod of Exclusion 4)	–	–	apparent KD of MS2 coat protein [1]: 25.9 nM
GGAUCGAGUGUGAGGAUAUGCUGGUCCUUGGAUCAGCAGAAGGCACAUGAGGAUCACCCAUGUGAAGACGGUCC [JL bmx4 3.16] (puzzle: Brourd's mod of Exclusion 4)	–	–	apparent KD of MS2 coat protein [3]: 270 nM; apparent KD of MS2 coat protein [2]: 24.7 nM; apparent KD of MS2 coat protein [4]: 25.8 nM
GGAUCGAGUGUGAGGAUAUGCUGGUCGUAAGAUCAGCAGAAGGCACAUGAGGAUCACCCAUGUGAAAACGGUCC [Mat - Exclusion 4 - JL Mod - D72] (puzzle: Brourd's mod of Exclusion 4)	–	–	apparent KD of MS2 coat protein [2]: 25.6 nM
GGAUCUACUGAGGAUAUUAUAUCACCCGACUGAUAAGAAGGCAGUACAUGAGGAUCACCCAUGUGGGUAGCCAC [Polaris7] (Eterna round: R97, puzzle: Exclusion 6)	79.6	99.4	–
GGCAAUAUGUAGGAUAUCGUAAUGGAAACAUUACGAGAAGGGCAAACAUGAGGAUCACCCAUGUUCCUUAAGCC [Mat - Exclusion 6 - Eli Mod - D69] (puzzle: Exclusion 6)	–	–	apparent KD of MS2 coat protein [3]: 21.5 nM; apparent KD of MS2 coat protein [2]: 15 nM; apparent KD of MS2 coat protein [4]: 18.4 nM
GGCACACAUGAGGAUCACCCAUGUGAGGAUAUUAGGCGAUCGUCGAUAGACGAUAGCCUGAGAAGGCACAUGCC [Mat - Exclusion 1 - Eli Mod - D12] (Eterna round: R97, puzzle: Exclusion 1)	76.9	20.6	–
GGCAGGCUUGAGGAUAUGCAUAGGCUAGGCCUAGCAGAAGGCAAGACAUGAGGAUCACCCAUGUGUUCCUUGUG [jl-ex6-4.35 ViennaUCT mod] (Eterna round: R97, puzzle: Exclusion 6)	545	322	–
GGCAGUACAGAGGAUAUCUGGACCUACAGGAAUAGAGAAGGUUGUACAUGAGGAUCACCCAUGUCGACACUCAG [Eternabot (Original) Solution 11] (Eterna round: R97, puzzle: Exclusion 6)	13.2	13.7	–

Sequence	apparent KD of MS2 coat protein (input ligand: FMN 200 uM) [nM]	apparent KD of MS2 coat protein (input ligand: none) [nM]	other results
GGCAUGUGAGGAUAUUAACGGCCUAGACCUGGAACGCCACUUAAGAAGGUACAUGAGGAUCACCCAUGUUGGUG [Eternabot (L2) Solution 19] (Eterna round: R97, puzzle: Exclusion 4)	711	367	–
GGCCCAUGAGGAUAUCAGUCUGGAUCAGACUAGAUCCUGACUGAGAAGGCACAUGAGGAUCACCCAUGUAGGCC [Eli 4x 4.30] (Eterna round: R97, puzzle: Exclusion 4)	17.3	23.6	–
GGCCCGCGCGUGAGGAUAUGCUGAUACUAGGAUUAGCAGAAGGCACAUGAGGAUCACCCAUGUCCAACUUGUCU [LRO-BmodExc4-11- Bluer = mod of Colors by Tatyana Zabanova] (Eterna round: R97, puzzle: Brourd's mod of Exclusion 4)	34.4	24.5	–
GGCCGGGCAGGAUAUGCGUGGGUCCUCAUGAGGACCCACGUACAUGAGGAUCACCCAUGUAGAAGGGCCCGGCC (Eterna round: R97, puzzle: Exclusion 2)	17.6	14.2	–
GGCCGUAAUAAGGAUAUCACUAGCUUCGGCUAGUGAGAAGGUAUUACAUGAGGAUCACCCAUGUGAUUAGGCCA [E6/5-B1] (Eterna round: R97, puzzle: Exclusion 6)	98.1	25.2	–
GGCCUGUGAGGAUAUUAGUAGUAGAUGAAAUAAACUAUUACUGAGAAGGCACAUGAGGAUCACCCAUGUUGGCC [Mat - Exclusion 4 - Eli Mod - D36] (Eterna round: R97, puzzle: Exclusion 4)	16.6	16.1	–
GGCCUUCCACAAGCUUUUUACAUGAGGAUCACCCAUGUGGUUUUUAGUCUUAUCCCGGGCCCGAUGUCGGGCCCGGG [-33.4, -54.7, A 16%] (Eterna round: R97, puzzle: Sensor, turn-off variant 1)	27.4	28.4	–
GGCGAGGGAGGAUAUACGUGAUUGAUGCCGGGAACCCAGAGACAUGAGGAUCACCCAUGUAGAAGGCCCGGCUA [EX2 B.4] (Eterna round: R97, puzzle: Exclusion 2)	10.9	14.5	–
GGGAUGUCAGGAUAUCCAAAAGUCUGCCAAUACAGCAGACAGGAGAAGGGACAUGAGGAUCACCCAUGUAAAGA [Atonis] (puzzle: Exclusion 4)	–	–	apparent KD of MS2 coat protein [2]: 33.5 nM
GGGCCCGGAGGAUAUACAUGAGGAUCACCCAUGUAGGGCCCGGGUAUUCCCGGGUUUUGUAGAAGGCCGGGUUU [-33.8, -30.7 kcal, A 19%, 5a,5a] (Eterna round: R97, puzzle: Exclusion 3)	25.1	14.8	–
GGGCCGCAAGUAAGGAUAUCCCUUAAAUUGUGAGCGGAGAAGGUACUUGAGGAUCACCCAAGUAUAGAAGAAAA [Arinbear] (Eterna round: R97, puzzle: Brourd's mod of Exclusion 4)	54.2	15.2	–
GGGCCUUUGGUCAGGAUAUCUUAUUCCAGACUAUAGGAGAAGGGACUUGAGGAUCACCCAAGUAAAAUGAAAAC [Dizadi] (Eterna round: R97, puzzle: Brourd's mod of Exclusion 4)	23.3	24	–
GGGCUGGGAGGAUAUUCGUUUGGAGACAUGAGGAUCACCCAUGUGAUGCGAGGGAAGUCCGGAGAAGGCUCGGUUC [-24.8, -21.2 kcal, 22% A] (Eterna round: R97, puzzle: Exclusion 5)	24	15.9	–
GGGUGCAAGCUAAGAUCCUACAUGAGGAUCACCCAUGUGGUCCGGUGACGUGAGUCACCGGACUUAGCUCGUCUUGU [salish99_S_TOV1_R5_004] (Eterna round: R97, puzzle: Sensor, turn-off variant 1)	91.2	95.6	–
GGUAAGCUAGGAUAUGCUUUGGGAAAGCAUUCCUUCGAUAAACUUGAGGAUCACCCAAGUAGAAGGAGCUUACU [salish99_ex2_r4_014] (Eterna round: R97, puzzle: Exclusion 2)	19.2	14.4	–
GGUACUAACACGAUAGUGUUAGUACUAUAAGCUUGUGUUACAUGAGGAUCACCCAUGUCCUCAUAAGCUCGUCUUGA [Mat - Sensor v3 - Turn-off var 2 - D91] (puzzle: Sensor v3, turn-off variant 2)	–	–	apparent KD of MS2 coat protein [3]: 38 nM; apparent KD of MS2 coat protein [2]: 640 nM; apparent KD of MS2 coat protein [4]: 36 nM
GGUACUCAAAGAGUACCAAUACGAACAUGAGGAUCACCCAUGUAGGAUAUGCUACUCAAAGAGUAGCAGAAGGACGUGUACCCU [Far Half Aptamer v2] (Eterna round: R96, puzzle: Exclusion NG 3)	59.9	24.8	apparent KD of MS2 coat protein [1]: 21.9 nM
